According to PMC3477848 (Biochemistry, 2012):

Target: T1, Dpo1 exo- (SsoDpo1, B-family DNA polymerase) (Sulfolobus solfataricus, UniProt P26811 1-882, D231A;D318A)
T1 sequence: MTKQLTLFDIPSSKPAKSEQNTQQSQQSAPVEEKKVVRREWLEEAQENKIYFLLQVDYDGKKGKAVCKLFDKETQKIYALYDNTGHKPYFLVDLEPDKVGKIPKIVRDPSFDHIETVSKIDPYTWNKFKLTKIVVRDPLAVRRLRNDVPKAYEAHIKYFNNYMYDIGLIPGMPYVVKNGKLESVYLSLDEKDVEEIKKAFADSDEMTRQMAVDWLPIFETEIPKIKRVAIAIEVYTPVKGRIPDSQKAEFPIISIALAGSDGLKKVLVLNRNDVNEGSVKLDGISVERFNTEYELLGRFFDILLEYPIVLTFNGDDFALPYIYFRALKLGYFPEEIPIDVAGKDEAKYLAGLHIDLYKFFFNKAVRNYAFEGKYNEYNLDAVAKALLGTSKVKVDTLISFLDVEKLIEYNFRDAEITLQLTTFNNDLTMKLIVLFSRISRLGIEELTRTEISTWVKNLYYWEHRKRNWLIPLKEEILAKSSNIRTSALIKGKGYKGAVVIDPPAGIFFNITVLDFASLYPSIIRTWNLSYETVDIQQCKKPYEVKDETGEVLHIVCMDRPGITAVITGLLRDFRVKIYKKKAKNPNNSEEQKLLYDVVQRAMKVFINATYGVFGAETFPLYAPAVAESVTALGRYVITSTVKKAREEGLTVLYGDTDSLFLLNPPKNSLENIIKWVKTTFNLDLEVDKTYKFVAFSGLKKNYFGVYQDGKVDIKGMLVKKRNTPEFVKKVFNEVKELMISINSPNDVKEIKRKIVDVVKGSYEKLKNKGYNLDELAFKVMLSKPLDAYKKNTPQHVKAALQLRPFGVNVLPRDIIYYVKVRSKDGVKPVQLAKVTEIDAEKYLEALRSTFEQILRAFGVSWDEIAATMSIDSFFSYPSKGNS
Assay: fluorescence anisotropy

B1: 37-nt hairpin primer-template, 5'-Cy3 (structured_DNA)
DNA: TTTTTTTTTTCCCGGGCCGGCGTTTCGCCGGCCCGGG
B1 gave a Kd of 0.198 ± 0.026 µM.
